One molecule from paper PMC11499264, “RNA m5C oxidation by TET2 regulates chromatin state and leukaemogenesis” can be followed below.

This series addresses T1, MBD6 MBD domain-MBP-His (Homo sapiens, UniProt Q96DN6 1-100).
T1 sequence: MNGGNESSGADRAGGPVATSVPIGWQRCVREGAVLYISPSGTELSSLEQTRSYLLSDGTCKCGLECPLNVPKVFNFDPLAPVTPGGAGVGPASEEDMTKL
Kind of series: EMSA; 0-100 uM protein; preferred over C and hm5C probes; 100 nM FAM probe, 20 mM HEPES pH 7.5, 40 mM KCl, 10 mM MgCl2, 0.1% Triton X-100, 10% glycerol, 1x RNaseOUT, on ice 30 min; 10% TBE gel, 0.5x TBE, 4 C. As to conditions: protein: recombinant; tags: C-terminal MBP-6xHis; label: 5' 6-FAM; single strand.

With TATGACCTGCGGTATGACCTGCGGTATGACCTGCGG (ssDNA, 5-methyl-dC at positions 7, 19, 31) [p1-m5C (ss)], the binding result is “binds”.
